Columns and labels:
[1] = target: Thrombospondin (human platelet) (human, UniProt P07996 19-1170); experiment: western blot overlay: rPTRP on the blot, ECM protein 5 µg/ml, anti-ECM antibody
[2] = target: T1, human collagen I (human, UniProt P02452 162-1218; P08123 80-1119); experiment: western blot overlay of rPTRP with ECM protein; same result by ELISA
T1 construct: Chemicon; also called Col I

[3] = target: T2, collagen III (human placenta) (human, UniProt P02461 154-1221); experiment: as above
T2 construct: Chemicon; also called Col III
T2 sequence: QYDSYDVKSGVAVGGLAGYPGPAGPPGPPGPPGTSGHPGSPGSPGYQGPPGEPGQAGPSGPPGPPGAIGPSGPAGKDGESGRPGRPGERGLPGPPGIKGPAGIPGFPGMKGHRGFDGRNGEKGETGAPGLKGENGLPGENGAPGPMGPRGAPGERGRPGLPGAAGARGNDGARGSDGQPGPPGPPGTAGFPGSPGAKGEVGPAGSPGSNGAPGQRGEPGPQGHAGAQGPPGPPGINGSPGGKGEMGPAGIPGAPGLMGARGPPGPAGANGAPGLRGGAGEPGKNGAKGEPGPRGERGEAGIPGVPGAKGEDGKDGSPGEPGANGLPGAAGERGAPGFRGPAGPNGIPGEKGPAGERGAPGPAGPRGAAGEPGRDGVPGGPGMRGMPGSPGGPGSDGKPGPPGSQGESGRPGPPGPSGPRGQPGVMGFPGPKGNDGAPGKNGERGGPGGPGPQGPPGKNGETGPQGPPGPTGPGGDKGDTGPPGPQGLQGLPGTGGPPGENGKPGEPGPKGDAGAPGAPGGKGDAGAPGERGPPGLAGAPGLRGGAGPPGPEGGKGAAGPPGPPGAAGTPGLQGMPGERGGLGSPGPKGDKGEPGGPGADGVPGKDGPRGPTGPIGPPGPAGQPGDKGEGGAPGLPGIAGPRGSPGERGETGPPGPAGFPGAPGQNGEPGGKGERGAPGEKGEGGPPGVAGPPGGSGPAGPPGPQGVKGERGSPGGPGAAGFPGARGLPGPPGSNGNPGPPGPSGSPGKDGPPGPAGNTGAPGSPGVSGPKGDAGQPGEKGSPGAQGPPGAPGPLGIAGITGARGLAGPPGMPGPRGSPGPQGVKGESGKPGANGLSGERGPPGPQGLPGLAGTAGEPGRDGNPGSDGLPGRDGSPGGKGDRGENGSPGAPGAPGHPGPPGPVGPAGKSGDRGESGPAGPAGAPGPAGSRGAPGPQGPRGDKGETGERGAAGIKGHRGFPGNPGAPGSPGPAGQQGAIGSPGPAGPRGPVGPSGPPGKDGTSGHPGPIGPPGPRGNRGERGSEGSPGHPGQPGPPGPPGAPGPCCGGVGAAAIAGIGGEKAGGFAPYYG

[4] = target: T3, elastin (human lung) (human, UniProt P15502 27-786); experiment: as above
T3 sequence: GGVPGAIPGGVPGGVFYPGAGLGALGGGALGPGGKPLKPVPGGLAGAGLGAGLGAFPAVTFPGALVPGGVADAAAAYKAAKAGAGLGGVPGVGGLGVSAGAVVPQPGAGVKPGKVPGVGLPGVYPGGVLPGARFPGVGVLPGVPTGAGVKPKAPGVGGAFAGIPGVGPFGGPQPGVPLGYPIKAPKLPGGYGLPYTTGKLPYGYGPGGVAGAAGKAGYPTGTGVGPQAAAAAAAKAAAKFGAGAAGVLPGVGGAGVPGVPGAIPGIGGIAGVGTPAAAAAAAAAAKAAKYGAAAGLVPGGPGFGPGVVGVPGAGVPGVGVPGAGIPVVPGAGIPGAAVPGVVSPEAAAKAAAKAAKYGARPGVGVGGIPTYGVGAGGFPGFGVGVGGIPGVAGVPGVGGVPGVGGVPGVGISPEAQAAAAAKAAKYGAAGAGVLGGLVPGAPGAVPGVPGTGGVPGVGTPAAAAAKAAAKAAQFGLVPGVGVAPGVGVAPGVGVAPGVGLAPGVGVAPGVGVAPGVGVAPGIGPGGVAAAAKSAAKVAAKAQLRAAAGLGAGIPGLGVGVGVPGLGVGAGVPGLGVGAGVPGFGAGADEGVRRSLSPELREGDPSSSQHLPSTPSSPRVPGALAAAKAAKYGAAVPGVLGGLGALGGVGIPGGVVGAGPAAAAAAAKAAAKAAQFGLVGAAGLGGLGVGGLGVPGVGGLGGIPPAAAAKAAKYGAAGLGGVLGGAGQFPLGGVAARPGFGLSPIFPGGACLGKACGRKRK

[5] = target: T4, collagen IV (human placenta) (human, UniProt P02462 28-1669; P08572 26-1712); experiment: as above
T4 construct: Chemicon; also called Col IV

[6] = target: T5, collagen II (human cartilage) (human, UniProt P02458 182-1241); experiment: as above
T5 construct: Chemicon; also called Col II

[7] = target: vitronectin (human plasma) (human, UniProt P04004 20-478); experiment: as above
[8] = target: T6, fibrinogen (human plasma) (human, UniProt P02671 20-629; P02675 31-491; P02679 27-437); experiment: as above
T6 sequence 1: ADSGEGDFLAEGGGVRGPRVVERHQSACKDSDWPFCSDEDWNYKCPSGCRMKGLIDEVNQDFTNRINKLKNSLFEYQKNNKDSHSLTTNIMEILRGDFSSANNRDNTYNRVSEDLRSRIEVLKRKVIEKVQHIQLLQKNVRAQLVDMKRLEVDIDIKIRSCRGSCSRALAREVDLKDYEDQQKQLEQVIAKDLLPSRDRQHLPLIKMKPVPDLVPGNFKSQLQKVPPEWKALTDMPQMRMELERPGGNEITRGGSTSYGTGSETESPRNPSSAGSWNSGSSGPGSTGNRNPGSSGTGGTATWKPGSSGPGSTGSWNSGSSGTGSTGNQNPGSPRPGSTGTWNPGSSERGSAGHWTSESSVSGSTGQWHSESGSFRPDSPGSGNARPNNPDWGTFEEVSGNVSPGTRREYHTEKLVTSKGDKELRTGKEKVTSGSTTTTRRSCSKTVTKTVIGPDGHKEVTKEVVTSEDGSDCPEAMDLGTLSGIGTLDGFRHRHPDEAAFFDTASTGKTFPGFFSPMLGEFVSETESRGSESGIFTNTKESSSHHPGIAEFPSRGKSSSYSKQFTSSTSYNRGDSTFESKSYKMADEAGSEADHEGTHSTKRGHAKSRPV
T6 sequence 2: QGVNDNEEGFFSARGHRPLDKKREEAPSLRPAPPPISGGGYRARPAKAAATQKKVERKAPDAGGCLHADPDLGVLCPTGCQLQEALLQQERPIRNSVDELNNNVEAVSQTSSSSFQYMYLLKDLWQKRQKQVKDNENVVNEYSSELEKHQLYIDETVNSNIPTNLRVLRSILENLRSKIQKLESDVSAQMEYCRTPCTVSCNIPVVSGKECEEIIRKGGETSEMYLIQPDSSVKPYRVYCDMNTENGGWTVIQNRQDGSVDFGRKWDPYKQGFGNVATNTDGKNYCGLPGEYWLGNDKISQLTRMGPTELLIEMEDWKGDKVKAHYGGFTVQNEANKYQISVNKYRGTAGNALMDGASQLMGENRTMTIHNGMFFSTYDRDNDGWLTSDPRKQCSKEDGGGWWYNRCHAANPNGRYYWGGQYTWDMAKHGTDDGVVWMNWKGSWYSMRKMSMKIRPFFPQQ
T6 sequence 3: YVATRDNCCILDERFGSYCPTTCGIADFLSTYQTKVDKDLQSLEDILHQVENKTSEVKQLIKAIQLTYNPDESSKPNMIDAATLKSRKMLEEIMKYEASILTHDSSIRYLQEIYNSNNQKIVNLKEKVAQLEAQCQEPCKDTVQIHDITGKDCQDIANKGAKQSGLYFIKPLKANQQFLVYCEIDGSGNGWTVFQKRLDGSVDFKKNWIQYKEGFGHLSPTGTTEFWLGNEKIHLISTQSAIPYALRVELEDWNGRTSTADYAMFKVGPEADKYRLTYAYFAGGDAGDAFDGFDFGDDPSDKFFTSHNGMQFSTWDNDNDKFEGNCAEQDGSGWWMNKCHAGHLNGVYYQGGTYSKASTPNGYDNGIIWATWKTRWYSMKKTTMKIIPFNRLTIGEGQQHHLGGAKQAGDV

Measured: binding result

Sequence of Thrombospondin (human platelet) (P07996 19-1170 limits assumed): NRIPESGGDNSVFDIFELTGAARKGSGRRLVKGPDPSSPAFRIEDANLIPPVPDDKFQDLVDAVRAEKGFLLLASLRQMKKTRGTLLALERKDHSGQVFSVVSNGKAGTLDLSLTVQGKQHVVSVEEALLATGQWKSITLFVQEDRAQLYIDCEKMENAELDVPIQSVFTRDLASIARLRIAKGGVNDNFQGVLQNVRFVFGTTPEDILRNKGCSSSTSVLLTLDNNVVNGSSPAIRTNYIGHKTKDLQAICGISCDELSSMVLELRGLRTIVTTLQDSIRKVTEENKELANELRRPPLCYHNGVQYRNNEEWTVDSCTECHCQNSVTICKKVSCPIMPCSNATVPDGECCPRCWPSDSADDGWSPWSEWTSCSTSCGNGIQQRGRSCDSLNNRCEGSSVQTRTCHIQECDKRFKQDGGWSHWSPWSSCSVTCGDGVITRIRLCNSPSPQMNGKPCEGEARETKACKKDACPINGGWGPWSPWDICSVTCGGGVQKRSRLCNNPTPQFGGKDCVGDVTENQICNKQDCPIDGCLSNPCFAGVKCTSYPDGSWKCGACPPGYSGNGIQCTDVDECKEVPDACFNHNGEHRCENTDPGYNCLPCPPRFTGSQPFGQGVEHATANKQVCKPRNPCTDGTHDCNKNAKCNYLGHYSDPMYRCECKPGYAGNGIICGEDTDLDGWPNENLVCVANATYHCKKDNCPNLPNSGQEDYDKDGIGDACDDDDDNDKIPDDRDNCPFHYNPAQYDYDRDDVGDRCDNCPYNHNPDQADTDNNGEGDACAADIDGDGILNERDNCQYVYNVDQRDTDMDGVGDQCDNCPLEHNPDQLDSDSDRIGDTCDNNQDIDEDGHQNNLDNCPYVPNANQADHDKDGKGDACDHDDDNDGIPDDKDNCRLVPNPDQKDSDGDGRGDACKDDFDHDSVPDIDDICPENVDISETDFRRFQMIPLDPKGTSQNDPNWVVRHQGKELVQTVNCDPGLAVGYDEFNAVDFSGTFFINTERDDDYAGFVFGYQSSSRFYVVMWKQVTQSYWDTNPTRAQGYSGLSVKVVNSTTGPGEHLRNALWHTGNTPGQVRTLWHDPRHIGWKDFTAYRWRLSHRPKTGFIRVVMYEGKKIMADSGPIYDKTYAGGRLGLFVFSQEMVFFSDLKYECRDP
Sequence of vitronectin (human plasma) (P04004 20-478 limits assumed): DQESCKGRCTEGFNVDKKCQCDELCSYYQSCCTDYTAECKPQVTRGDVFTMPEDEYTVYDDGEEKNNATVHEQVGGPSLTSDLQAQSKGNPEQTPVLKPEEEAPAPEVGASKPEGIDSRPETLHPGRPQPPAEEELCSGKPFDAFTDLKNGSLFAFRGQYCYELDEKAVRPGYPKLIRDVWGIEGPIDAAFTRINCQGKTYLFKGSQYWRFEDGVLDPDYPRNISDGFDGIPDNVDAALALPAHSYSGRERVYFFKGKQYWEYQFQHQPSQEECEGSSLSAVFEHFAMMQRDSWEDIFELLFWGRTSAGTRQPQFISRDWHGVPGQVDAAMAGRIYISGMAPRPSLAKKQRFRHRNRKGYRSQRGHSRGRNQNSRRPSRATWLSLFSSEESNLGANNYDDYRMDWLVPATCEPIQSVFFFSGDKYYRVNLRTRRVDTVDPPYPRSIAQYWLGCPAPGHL
T1 sequence (P02452 162-1218, chain 1 of 2): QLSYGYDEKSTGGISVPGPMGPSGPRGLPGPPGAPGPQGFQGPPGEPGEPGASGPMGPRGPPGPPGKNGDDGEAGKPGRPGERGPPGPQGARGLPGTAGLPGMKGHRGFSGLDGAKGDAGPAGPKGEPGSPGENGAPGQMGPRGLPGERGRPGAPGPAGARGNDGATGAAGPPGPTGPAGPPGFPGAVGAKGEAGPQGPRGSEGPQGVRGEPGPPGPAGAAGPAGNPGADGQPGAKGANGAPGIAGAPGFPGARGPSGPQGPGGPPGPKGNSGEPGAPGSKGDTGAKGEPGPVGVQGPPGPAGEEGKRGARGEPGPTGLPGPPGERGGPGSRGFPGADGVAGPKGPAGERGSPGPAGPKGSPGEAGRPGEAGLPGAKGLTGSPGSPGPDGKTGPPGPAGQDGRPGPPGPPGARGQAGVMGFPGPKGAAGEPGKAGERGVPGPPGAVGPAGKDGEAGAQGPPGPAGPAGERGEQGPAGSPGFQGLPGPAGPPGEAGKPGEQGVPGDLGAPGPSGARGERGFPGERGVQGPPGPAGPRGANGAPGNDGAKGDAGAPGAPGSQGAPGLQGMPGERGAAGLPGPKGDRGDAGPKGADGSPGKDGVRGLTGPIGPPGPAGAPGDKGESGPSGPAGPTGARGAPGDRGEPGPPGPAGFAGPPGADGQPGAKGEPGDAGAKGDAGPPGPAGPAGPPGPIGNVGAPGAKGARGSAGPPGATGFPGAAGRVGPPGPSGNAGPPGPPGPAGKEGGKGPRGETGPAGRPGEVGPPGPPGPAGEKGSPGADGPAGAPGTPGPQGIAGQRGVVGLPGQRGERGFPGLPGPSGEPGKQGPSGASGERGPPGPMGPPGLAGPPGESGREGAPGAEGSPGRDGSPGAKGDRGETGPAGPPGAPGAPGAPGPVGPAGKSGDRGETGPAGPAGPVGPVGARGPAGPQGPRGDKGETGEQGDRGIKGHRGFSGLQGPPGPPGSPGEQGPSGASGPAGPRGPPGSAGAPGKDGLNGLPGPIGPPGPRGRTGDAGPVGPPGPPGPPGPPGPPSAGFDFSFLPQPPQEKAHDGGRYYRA
T1 sequence (P08123 80-1119, chain 2 of 2): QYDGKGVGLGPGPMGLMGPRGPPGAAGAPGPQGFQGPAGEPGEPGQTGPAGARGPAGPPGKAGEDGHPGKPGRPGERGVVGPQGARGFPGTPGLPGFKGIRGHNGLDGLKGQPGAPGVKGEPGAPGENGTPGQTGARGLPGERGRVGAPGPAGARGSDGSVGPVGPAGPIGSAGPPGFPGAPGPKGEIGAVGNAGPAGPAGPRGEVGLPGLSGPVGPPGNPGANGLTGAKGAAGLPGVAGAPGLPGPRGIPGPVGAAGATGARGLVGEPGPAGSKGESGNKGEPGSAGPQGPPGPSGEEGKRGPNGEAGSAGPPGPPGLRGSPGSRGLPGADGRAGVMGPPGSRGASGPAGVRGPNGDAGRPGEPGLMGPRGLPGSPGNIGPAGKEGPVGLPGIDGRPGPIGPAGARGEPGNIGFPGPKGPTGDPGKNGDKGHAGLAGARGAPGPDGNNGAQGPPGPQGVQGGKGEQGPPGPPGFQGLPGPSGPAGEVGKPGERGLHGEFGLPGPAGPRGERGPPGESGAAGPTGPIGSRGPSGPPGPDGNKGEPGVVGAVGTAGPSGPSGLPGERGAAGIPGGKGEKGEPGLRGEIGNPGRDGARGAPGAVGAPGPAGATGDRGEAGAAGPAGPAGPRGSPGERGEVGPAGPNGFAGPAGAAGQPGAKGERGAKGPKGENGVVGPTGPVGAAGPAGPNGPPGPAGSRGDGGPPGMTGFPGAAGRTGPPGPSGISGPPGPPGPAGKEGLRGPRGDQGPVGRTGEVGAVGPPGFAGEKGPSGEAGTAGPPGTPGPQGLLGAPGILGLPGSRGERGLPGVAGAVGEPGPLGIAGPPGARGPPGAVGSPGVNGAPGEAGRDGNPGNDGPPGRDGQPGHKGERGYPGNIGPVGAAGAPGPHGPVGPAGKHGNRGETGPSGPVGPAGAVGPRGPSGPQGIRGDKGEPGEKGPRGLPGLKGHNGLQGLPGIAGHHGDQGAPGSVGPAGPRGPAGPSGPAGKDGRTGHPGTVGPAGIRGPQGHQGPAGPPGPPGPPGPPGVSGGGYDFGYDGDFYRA
T5 sequence (P02458 182-1241 limits assumed): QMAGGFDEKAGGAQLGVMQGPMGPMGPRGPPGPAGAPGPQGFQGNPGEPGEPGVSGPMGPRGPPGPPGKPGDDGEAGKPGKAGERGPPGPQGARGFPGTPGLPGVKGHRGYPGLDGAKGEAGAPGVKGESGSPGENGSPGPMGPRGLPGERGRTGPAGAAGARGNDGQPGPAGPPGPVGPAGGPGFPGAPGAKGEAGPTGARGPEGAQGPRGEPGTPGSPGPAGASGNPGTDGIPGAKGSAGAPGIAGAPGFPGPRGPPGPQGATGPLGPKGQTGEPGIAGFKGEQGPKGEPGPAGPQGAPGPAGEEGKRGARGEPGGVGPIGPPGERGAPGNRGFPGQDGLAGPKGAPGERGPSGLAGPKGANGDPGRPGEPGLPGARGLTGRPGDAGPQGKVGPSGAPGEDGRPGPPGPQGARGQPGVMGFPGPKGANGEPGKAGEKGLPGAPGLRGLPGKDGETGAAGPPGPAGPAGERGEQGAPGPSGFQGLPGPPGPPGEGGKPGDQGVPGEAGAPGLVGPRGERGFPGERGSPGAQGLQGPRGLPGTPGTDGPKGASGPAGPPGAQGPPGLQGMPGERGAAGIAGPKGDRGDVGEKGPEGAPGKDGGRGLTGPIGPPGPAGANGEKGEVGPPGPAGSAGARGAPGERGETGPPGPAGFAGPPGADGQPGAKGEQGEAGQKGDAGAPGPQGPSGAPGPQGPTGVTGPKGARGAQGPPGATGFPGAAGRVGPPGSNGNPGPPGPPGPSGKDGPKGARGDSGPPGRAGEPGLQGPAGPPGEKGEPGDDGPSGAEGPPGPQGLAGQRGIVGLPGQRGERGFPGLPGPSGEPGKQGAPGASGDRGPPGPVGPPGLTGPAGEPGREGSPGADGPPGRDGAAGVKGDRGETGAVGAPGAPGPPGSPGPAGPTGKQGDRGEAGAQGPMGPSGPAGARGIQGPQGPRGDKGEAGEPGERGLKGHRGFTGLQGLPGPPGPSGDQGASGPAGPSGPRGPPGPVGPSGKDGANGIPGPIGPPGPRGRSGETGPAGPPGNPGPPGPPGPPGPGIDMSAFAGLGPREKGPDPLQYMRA

B1: purified recombinant PTRP (rPTRP), GST tag cleaved (other)
chain: MDVALGVAVTDRVARLALVDSAAPGTVIDQFVLDVAEHPVEVLTETVVGTDRSLAGENHRLVATRLCWPDQAKADELQHALQDSGVHDVAVISEAQAATALVGAAHAGSAVLLVGDETATLSVVGDPDAPPTMVAVAPVAGADATSTVDTLMARLGDQALAPGDVFLVGRSAEHTTVLADQLRAASTMRVQTPDDPTFALARGAAMAAGAATMAHPALVADATTSLPRAEAGQSGSEGEQLAYSQASDYELLPVDEYEEHDEYGAAADRSAPLSRRSLLIGNAVVAFAVIGFASLAVAVAVTIRPTAASKPVEGHQNAQPGKFMPLLPTQQQAPVPPPPPDDPTAGFQGGTIPAVQNVVPRPGTSPGVGGTPASPAPEAPAVPGVVPAPVPIPVPIIIPPFPGWQPGMPTIPTAPPTTPVTTSATTPPTTPPTTPVTTPPTTPPTTPVTTPPTTPPTTPVTTPPTTVAPTTVAPTTVAPTTVAPTTVAPATATPTTVAPQPTQQPTQQPTQQMPTQQQTVAPQTVAPAPQPPSGGRNGSGGGDLFGGF
notes: also called Proline-Threonine Repetitive Protein; Rv0538
binds: [1]
no binding (tested: 5 µg/ml): all other assays above

Reference: patent US20110104194A1 (NEW YORK UNIVERSITY, published 2011)
